From article PMC7242879, “Exploring the Molecular Basis for Substrate Affinity and Structural Stability in Bacterial GH39 β-Xylosidases” (Frontiers in Bioengineering and Biotechnology, 2020)

Tested on: O=[N+]([O-])c1ccc(O[C@@H]2OC[C@@H](O)[C@H](O)[C@H]2O)cc1
Test: purified protein
Conditions: McIlvaine buffer 50 mM pH 5.5, 40 °C, 0.1–25 mM substrate, 13.6 μM enzyme, 15 min

XacXynB (Xanthomonas citri subsp. citri 306)
Km: 1930 ± 250 µM | kcat: 4.43 ± 0.142 s⁻¹ | kcat/Km: 2300 M⁻¹ s⁻¹
